Laboratory results taken from article PMC6177440, “Overlapping motifs on the herpes viral proteins ICP27 and ORF57 mediate interactions with the mRNA export adaptors ALYREF and UIF” (Scientific Reports, 2018).

T1: UIF N-terminal region (residues 1-190), recombinant (human, UniProt Q96QD9 1-190)
T1 construct: UIF, homo sapiens, Uniprot Q96QD9, residues 1-190, in pET-15b; source: T7 express E. coli, purified (TALON resin, size exclusion chromatography)
T1 sequence (looked up): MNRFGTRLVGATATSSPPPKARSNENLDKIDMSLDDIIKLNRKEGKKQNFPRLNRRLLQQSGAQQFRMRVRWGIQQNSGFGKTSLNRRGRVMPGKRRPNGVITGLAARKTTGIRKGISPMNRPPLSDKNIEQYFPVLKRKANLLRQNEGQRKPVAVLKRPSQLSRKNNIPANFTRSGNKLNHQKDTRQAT

T2: KSHV ORF57 residues 153-455 (KSHV, UniProt Q2HR75 153-455)
T2 construct: ORF57 of Kaposi sarcoma herpes virus (KSHV), residues 153-455, in pET-21a; The strep-II-tag and HRV-3C site lay between thioredoxin and ORF57; also called ksORF57Δ153; ORF57Δ153; source: T7 express E. coli, purified (strep-tag resin, HRV-3C cleavage, size exclusion chromatography); not shown: thioredoxin, N-terminal, cleaved; strep-II, N-terminal, cleaved
T2 sequence: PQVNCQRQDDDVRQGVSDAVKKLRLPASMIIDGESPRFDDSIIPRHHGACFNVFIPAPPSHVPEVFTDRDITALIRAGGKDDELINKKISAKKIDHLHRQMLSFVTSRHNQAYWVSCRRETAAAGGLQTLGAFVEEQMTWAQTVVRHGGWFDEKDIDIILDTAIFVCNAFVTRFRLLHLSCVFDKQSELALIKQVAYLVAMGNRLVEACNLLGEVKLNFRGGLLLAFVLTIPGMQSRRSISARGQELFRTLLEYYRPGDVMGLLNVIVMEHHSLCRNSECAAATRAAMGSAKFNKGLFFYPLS

B1: REF2-I (murine variant of ALYREF) residues 1-155 (domain or fragment)
chain: not shown
notes: Used 15N labelled or unlabelled; source: purified

How the values were obtained:
Details in all cases: both partners purified
[1] = target: B1; test: NMR titration; 15N HSQC of the 15N labelled protein (target) without and with an equimolar amount of the unlabelled partner (binder); ca. 50 µM; 20 mM sodium phosphate, 50 mM NaCl, 50 mM L-Arg, 50 mM L-Glu, 1 mM EDTA, 2 mM TCEP, pH 6.2; 298 K
[2] = target: T1, UIF N-terminal region (residues 1-190), …; test: as above
[3] = target: T2, KSHV ORF57 residues 153-455; test: NMR titration; 15N HSQC of the 15N labelled REF2-I construct (target) without and with unlabelled ICP27Δ241 or ksORF57Δ153 (binder); ca. 50 µM; NMR buffer with EDTA decreased to 0.1 mM, pH 6.2; 298 K

Binder | binding result [1] | binding result [2] | binding result [3]
HSV-1 ICP27 residues 103-155 (domain or fragment, ICP27 of HSV-1, residues 103-155; Used 15N labelled; also called ICP27^103–155; source: purified) SVWSRLGARRPSCSPEQHGGKVARLQPPPTKAQPARGGRRGRRRGRGRGGPGA | binds | binds | 
B1 |  |  | binds
KSHV ORF57 residues 68-178 (domain or fragment, ORF57 of Kaposi sarcoma herpes virus (KSHV), residues 68-178, in pET-15b; Used 15N labelled or unlabelled; also called ksORF57^68–178) GRIPKKSQGRSQLRSEIQFCSPLSRPRSPSPVNRYGKKIKFGTAGQNTRPPPEKRPRRRPRDRLQYGRTTRGGQCRAAPKRATRRPQVNCQRQDDDVRQGVSDAVKKLRLP | binds | binds | 
